According to US20260150817A1:
Like-named read-outs stand apart in the source and are kept apart here.

Assays:
[1] = biological target: SARS-Cov2 Spike Active Trimer SAT (R&D Systems; Catalog No. 10549-CV) (SARS-CoV-2) (UniProt P0DTC2)
[2] = biological target: SARS-Cov2 Spike Active Trimer SAT (R&D Systems; Catalog No. 10549-CV) (SARS-CoV-2) (UniProt P0DTC2); experiment: SPR (Carterra)
[3] = biological target: SARS-Cov2 Spike Active Trimer SAT (R&D Systems; Catalog No. 10549-CV) (SARS-CoV-2) (UniProt P0DTC2); remark: listed apart in the source
[4] = biological target: SARS-Cov2 Spike Active Trimer SAT (R&D Systems; Catalog No. 10549-CV) (SARS-CoV-2) (UniProt P0DTC2); experiment: ELISA, serially diluted purified Nb-Fc against SAT antigen
[5] = biological target: SARS-Cov2 Spike Active Trimer SAT (R&D Systems; Catalog No. 10549-CV) (SARS-CoV-2) (UniProt P0DTC2); experiment: SPR (Biacore)
[6] = biological target: SARS-COV-2 Spike(S) protein with an inactivated furin site, on HEK293-Spike cells (293-SARS2-S-dfur, (SARS-CoV-2) (UniProt P0DTC2))

**Q.** For “human SAT Nb-Fc control VH-Ab-8 (HAb8-S) (Fc fusion)”, which Kd [1] is on record?
**A.** The Kd was 19.8 nM.

**Q.** And the Kd [2]?
**A.** The Kd was 37.3 nM.

**Q.** What about the Response [3] of the same substance?
**A.** Its Response is 0.489.

**Q.** And the koff [3]?
**A.** The koff was 0.00294 s⁻¹.

**Q.** What about the kon [3] of the same substance?
**A.** Its kon is 149000 M⁻¹ s⁻¹.

**Q.** What about the EC50 [4] of the same substance?
**A.** Its EC50 is 0.018 nM.

**Q.** And the Kd [5]?
**A.** Its Kd is 5.7 nM.

**Q.** What about the GMFI (HEK293-Spike) [6] of the same substance?
**A.** The GMFI (HEK293-Spike) was 430.

**Q.** What about the GMFI Ratio over No 1st Ab control (HEK293-Spike) [6] of the same substance?
**A.** The GMFI Ratio over No 1st Ab control (HEK293-Spike) was 21.1.
